Results as given in the supplement of paper PMC10567573.

B1: CLCN6 (parent)
chain: ILRSQLVTLLVRGVCYSESQSSAS
B2: VPS39 (parent)
chain: ITEEKVCMVCKKKIGNSAFARYPN

Variants of: B1
Test: protein stability index of a GFP-peptide fusion (GPS, HEK-293T) (PSI 1-6); higher = more stable
Conditions: c terminus: a fixed tail appended
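Note: lentivirally expressed fusions sorted by FACS into six bins by GFP to DsRed ratio, PSI derived from sequencing read proportions per bin multiplied by bin number.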

Protein stability index, by site and new letter:
A23: N 4.11 | K 2.29 | Y 3 | M 2.75 | F 3.27 | P 3.09 | Q 3.96 | D 4.03 | T 2 | I 4.16 | C 2.96 | S 2.38 | H 2.38 | V 1.81 | E 2.41 | W 4.14
S19: D 2.21 | H 3.62 | F 3.38 | L 3.29 | C 3.23 | Y 2.44 | P 1.82 | Q 1.79 | M 3.15 | W 2.92 | A 4.08 | G 1.57 | T 4.83
S17: F 2.25 | A 2.45 | I 3.39 | L 4.34 | H 3 | R 2.36 | P 2.5 | E 2.11 | T 2.24 | N 3.71 | G 2.54 | K 2.16 | Q 1.98 | D 2.43 | Y 2.78
E18: T 4.5 | Q 2.09 | F 5.28 | R 2.1 | M 2.09 | L 2.71 | W 2.86 | A 2.15 | K 5.27 | D 2.19 | G 3.04 | I 3.81 | P 3.08 | Y 2.54 | N 3.67 | H 2.13
S21: A 3.29 | M 2.12 | L 2.14 | W 3.14 | N 2.81 | K 2.66 | Y 2.89 | F 2.54 | I 2.59 | P 1.34 | E 4.5
S22: Y 3.28 | H 3.54 | N 1.92 | A 1.76 | Q 3.86 | D 1.44 | M 3.01 | F 4.37 | P 2.17 | V 2.66 | R 3.39 | I 2.29 | T 2.11 | K 3.18
Q20: W 2.38 | T 1.8 | G 3.74 | I 1.93 | H 2.27 | C 4.15 | F 2.4 | L 2.77 | K 4.02 | A 4.07 | Y 3.72 | D 1.56 | E 3.06 | V 2.68
C15: P 2.23 | R 3.44 | V 5.04 | Y 4.15
S24: V 2.87 | D 2.68 | K 2.49 | T 2.7 | G 3.21 | W 2.9 | F 3.24 | N 2.4 | R 2.78 | P 3.9 | M 4.04 | Q 1.85
Y16: D 2.09 | R 3.34 | W 2.61 | V 2.94 | C 2.31 | K 1.32 | S 2.22 | T 3.87 | P 3.6 | H 2.77 | A 3.1 | E 1.94 | I 2.94 | L 3.45 | N 2.37

Variants of: B2
Test: as above
Conditions: c terminus: a fixed tail appended

Protein stability index: each site, then its substitutions
V6: M 2.81 | S 3.06 | W 1.62 | P 2.88 | C 1.95 | T 2.3 | N 3.42 | L 2.21 | Q 2.48 | E 2.8 | A 1.83 | H 2.65 | G 1.38 | K 2.95 | F 2.39 | D 3.48 | R 2.44 | Y 2.52 | I 3.18
V9: N 3.33 | K 3.58 | Q 3.4 | M 2.69 | W 2.34 | C 2.67 | L 2.83 | E 3.53 | A 3.05 | Y 1.99 | S 3.35 | R 3.61 | H 2.87 | D 2.71 | F 2.27 | I 2.06 | G 3.1 | P 3.59 | T 2.51
M8: I 2.6 | E 2.85 | R 2.39 | L 2.65 | S 3.29 | A 2.91 | N 2.92 | K 3.11 | V 3.23 | P 2.64 | F 3.02 | Y 1.94 | W 1.51 | D 2.95 | G 2.64 | Q 3.22 | C 2.44 | H 2.31 | T 2.43
C10: H 3.32 | F 2.04 | L 2.38 | V 2.84 | W 2.59 | G 4.21 | M 2.94 | R 3.96 | P 3.97 | K 2.77 | Y 2.64 | I 2.45 | E 4.15 | N 4.14 | D 3.67 | S 4.14 | A 3.13
I1: M 2.2 | D 3.39 | W 2.33 | T 2.88 | V 2.95 | R 2.13 | L 2.5 | E 3.18 | Q 2.91 | N 2.78 | S 2.59 | F 2.67 | K 2.6 | P 2.35 | A 2.97 | G 3.1 | C 2.24 | H 2.59 | Y 2.49
E3: Y 2.03 | C 1.26 | W 1.96 | F 1.51 | Q 2.53 | R 3.83 | L 1.91 | P 2.25 | V 1.82 | T 1.97 | H 1.94 | M 1.39 | G 2.13 | N 1.84 | K 1.44 | S 1.97 | I 3 | D 2.55 | A 1.97
C7: Q 3.31 | F 2.78 | K 3.1 | E 4.24 | H 3.47 | N 4.1 | G 2.46 | A 2.81 | W 2.02 | D 4.19 | V 3.31 | Y 2.53 | S 2.98 | T 3.18 | I 2.2 | P 3.64 | L 2.77 | R 2.54 | M 2.79
K11: L 1.42 | D 3.21 | V 2.23 | N 1.81 | Q 2.29 | I 1.85 | E 2.75 | H 1.74 | R 1.98 | S 1.7 | A 2.19 | F 1.54 | T 2.2 | M 1.66 | G 2.58 | C 1.42 | P 2.76
E4: M 2.57 | H 1.82 | Y 2.15 | F 1.77 | A 1.47 | L 2.09 | I 2.06 | Q 2.38 | R 2.15 | V 1.91 | C 1.57 | D 2.94 | P 2.39 | N 2.12 | G 1.5 | S 1.74 | T 1.83 | K 1.86
K5: M 2.23 | T 2.09 | D 2.65 | E 2.62 | A 2.63 | Y 1.55 | C 2.04 | N 3.66 | P 2.87 | S 2.53 | F 2.21 | R 1.65 | L 2.06 | I 1.78 | G 2.33 | W 2.28 | V 1.98 | H 2.17 | Q 2.42
T2: F 2.9 | G 2.15 | I 2.43 | R 2.55 | C 2.32 | L 3.59 | H 3.16 | M 2.02 | N 2.79 | Q 3.19 | V 2.67 | A 2.94 | D 2.92 | P 2.53 | E 2.72 | K 2.42 | S 2.27 | W 1.77 | Y 2.34
